Laboratory results: article PMC9932072

Target: Lys^B29Atto655-insulin aspart (human) (UniProt P01308)
Assay: single-molecule TIRF microscopy; 10 nM labelled insulin in solution binding to labelled insulin nonspecifically immobilised on a PLL-PEG passivated surface; no Zn^2+, no phenol; 10 mM Na2HPO4, 10 mM NaH2PO4, 5 mM NaCl, pH 7.32, room temperature; seven-state HMM, rate constants of each step between monomer and hexamer (kij: state i to state j)

Lys^B29Atto655-insulin aspart (from UniProt P01308 90-110; P01308 25-54) (natural protein)
k24 (association rate constant, dimer to tetramer): 2e+08 M⁻¹ s⁻¹ | k31 (dissociation rate constant, trimer to monomer): 0.062 s⁻¹
